Data: patent CN117003876A (KAIKA BIO TECH SHANGHAI CO LTD, dated 2023)

B1: 1B5B10 (antibody, mouse IgG2b, kappa, V domains shown)
VH: DVQLQESGPGLVKPSQSLSLTCTVTGYSITSDYAWNWIRQFPGNKLEWMGYIDNSGSTNYNPSLRSRISITRDTSKNQFFLQLNSVTTEDTATYYCALNDYHYVMDYWGQGTSVTVSS
VL: DIQMTQSPASLSASVGETVTITCRPSENIYSYLAWYQQKQGKSPQLLVYSAKTLAEGVPLRFSGSYSGTHFSLRINSLQPEDFGSYYCQHHYGSPLTFGSGTKLELKR
notes: also called 1B5B10重组抗体; 鼠单抗1B5B10
B2: CXCR4膜蛋白 on Hela细胞 (receptor, UniProt P61073 1-352, looked up)
chain: MEGISIYTSDNYTEEMGSGDYDSMKEPCFREENANFNKIFLPTIYSIIFLTGIVGNGLVILVMGYQKKLRSMTDKYRLHLSVADLLFVITLPFWAVDAVANWYFGNFLCKAVHVIYTVNLYSSVLILAFISLDRYLAIVHATNSQRPRKLLAEKVVYVGVWIPALLLTIPDFIFANVSEADDRYICDRFYPNDLWVVVFQFQHIMVGLILPGIVILSCYCIIISKLSHSKGHQKRKALKTTVILILAFFACWLPYYIGISIDSFILLEIIKQGCEFENTVHKWISITEALAFFHCCLNPILYAFLGAKFKTSAQHALTSVSRGSSLKILSKGKRGGHSSVSTESESSSFHSS
notes: whole, on cells; also called Hela细胞过表达CXCR4膜蛋白; Hela细胞膜蛋白CXCR4

Tests used:
CXCR4膜蛋白 on Hela细胞 = target: B2; assay: FACS on Hela cells, recombinant antibody
[1] = target: T1, 生物素标记SDF-1a配体(SKU# RBP48061, Reprokine) (UniProt P48061-2 22-89, biotin-labelled (site not stated)); assay: FACS on Hela cells, 0.1uM biotin-SDF-1a, SA-FITC
T1 construct: Bought biotinylated ligand; also called SDF-1α; CXCL12

Binder | binding result (CXCR4膜蛋白 on Hela细胞) | binding result [1]
B1 | binds | 
B2 |  | binds
